Ends that are not written are not given here. * marks the point of attachment. Biotin = O=C1N[C@H]2[C@H](CS[C@H]2CCCCC(=O)*)N1
B1: CD3n C-terminal PL peptide AA4L, biotinylated (peptide)
peptide: Biotin-SVFSIPTLWSPWPPSSSSQL
notes: also called CD3-eta
B2: CD49F (Aform, alpha 6) C-terminal PL peptide AA12L, biotinylated (peptide)
peptide: Biotin-HKAEIHAQPSDKERLTSDA

Molecular target: T1, GST-PSD95 PDZ domain fusion protein (human post-synaptic density protein 95 AA387-724; PDZ domains 1-3 of 3) (human, UniProt P08515 1-218 = GST)
T1 sequence (P08515 1-218, tags or fused parts left off): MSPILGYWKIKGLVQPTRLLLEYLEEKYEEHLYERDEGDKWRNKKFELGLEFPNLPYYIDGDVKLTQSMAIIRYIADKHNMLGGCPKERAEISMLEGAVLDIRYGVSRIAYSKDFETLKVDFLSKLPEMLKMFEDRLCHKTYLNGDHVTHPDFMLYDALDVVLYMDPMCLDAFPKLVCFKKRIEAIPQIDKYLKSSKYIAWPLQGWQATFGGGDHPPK
Assay: A assay

Question: Does B1 bind?
Answer: binds

Molecular target: T2, GST-NeDLG PDZ domain fusion protein (presynaptic protein sao102, neuroendocrine-dlg; PDZ domains 1-2 of 3) (UniProt P08515 1-218 = GST)
T2 construct: also called NeDLG1
T2 sequence (P08515 1-218, tags or fused parts left off): as above
Assay: A/G assays

Question: Does B2 bind?
Answer: no binding

Question: Does B1 bind?
Answer: no binding

Molecular target: GST-AF6 PDZ domain fusion protein (af-6 protein AA985-1077; PDZ domain 1 of 1) (UniProt P08515 1-218 = GST)
Sequence (P08515 1-218, tags or fused parts left off): as above
Assay: A/G assays

Question: Does B2 bind?
Answer: no binding

Question: Does B1 bind?
Answer: no binding

Molecular target: GST-prIL16 PDZ domain fusion protein (putative interleukin 16 precursor AA170-383; PDZ domains 1-2 of 2) (UniProt P08515 1-218 = GST)
Sequence (P08515 1-218, tags or fused parts left off): as above
Assay: A/G assays

Question: Does B2 bind?
Answer: no binding

Question: Does B1 bind?
Answer: no binding

Molecular target: T3, GST-KIAA0316 PDZ domain fusion protein (KIAA0316 AA197-284; PDZ domain 1 of 1) (UniProt P08515 1-218 = GST)
T3 construct: also called K316
T3 sequence (P08515 1-218, tags or fused parts left off): as above
Assay: A/G assays

Question: Does B2 bind?
Answer: no binding

Question: Does B1 bind?
Answer: no binding

Molecular target: T4, GST-TAX40 PDZ domain fusion protein (human tax interaction protein 40 AA35-137; PDZ domain 1 of 1) (human, UniProt P08515 1-218 = GST)
T4 construct: also called TX 40
T4 sequence (P08515 1-218, tags or fused parts left off): as above
Assay: A/G assays

Question: Does B2 bind?
Answer: no binding

Question: Does B1 bind?
Answer: no binding

Molecular target: GST-LIM PDZ domain fusion protein (Human LIM protein AA29-112; PDZ domain 1 of 1) (human, UniProt P08515 1-218 = GST)
Assay: A/G assays

Question: Does B2 bind?
Answer: no binding

Question: Does B1 bind?
Answer: no binding

Molecular target: T5, GST-TAX43 PDZ domain fusion protein (human tax interaction protein 43 AA15-85; PDZ domain 1 of 1) (human, UniProt P08515 1-218 = GST)
T5 construct: also called TX 43
T5 sequence (P08515 1-218, tags or fused parts left off): as above
Assay: A/G assays

Question: Does B2 bind?
Answer: no binding

Question: Does B1 bind?
Answer: no binding

Molecular target: GST-LIMK2 PDZ domain fusion protein (human LIM domain kinase 2 AA185-275; PDZ domain 1 of 1) (human, UniProt P08515 1-218 = GST)
Sequence (P08515 1-218, tags or fused parts left off): as above
Assay: A/G assays

Question: Does B2 bind?
Answer: no binding

Question: Does B1 bind?
Answer: no binding

Molecular target: T6, GST-CBP PDZ domain fusion protein (Cytohesin binding protein HE AA85-175; PDZ domain 1 of 1) (UniProt P08515 1-218 = GST)
T6 construct: also called Prot
T6 sequence (P08515 1-218, tags or fused parts left off): as above
Assay: A/G assays

Question: Does B2 bind?
Answer: no binding

Question: Does B1 bind?
Answer: no binding

Molecular target: GST-MINT3 PDZ domain fusion protein (human MINT3 AA11-52; PDZ domain 1 of 1) (human, UniProt P08515 1-218 = GST)
Sequence (P08515 1-218, tags or fused parts left off): as above
Assay: A/G assays

Question: Does B2 bind?
Answer: no binding

Question: Does B1 bind?
Answer: no binding

Molecular target: T7, GST-MPP2 PDZ domain fusion protein (maguk p55 subfamily member 2 (DLG2) AA185-273; PDZ domain 1 of 1) (UniProt P08515 1-218 = GST)
T7 construct: also called MMP2
T7 sequence (P08515 1-218, tags or fused parts left off): as above
Assay: A/G assays

Question: Does B2 bind?
Answer: no binding

Question: Does B1 bind?
Answer: no binding

Molecular target: GST-MPP1 PDZ domain fusion protein (55 Kd erythrocyte membrane protein AA101-186; PDZ domain 1 of 1) (UniProt P08515 1-218 = GST)
Assay: A/G assays

Question: Does B2 bind?
Answer: no binding

Question: Does B1 bind?
Answer: no binding

Molecular target: T8, GST-TAX2 PDZ domain fusion protein (human tax interaction protein 2 AA54-140; PDZ domain 1 of 1) (human, UniProt P08515 1-218 = GST)
T8 construct: also called TX 2
T8 sequence (P08515 1-218, tags or fused parts left off): as above
Assay: A/G assays

Question: Does B2 bind?
Answer: no binding

Question: Does B1 bind?
Answer: no binding

Molecular target: T9, GST-KIAA0303 PDZ domain fusion protein (KIAA0303 AA652-742; PDZ domain 1 of 1) (UniProt P08515 1-218 = GST)
T9 construct: also called K303
T9 sequence (P08515 1-218, tags or fused parts left off): as above
Assay: A/G assays

Question: Does B2 bind?
Answer: no binding

Question: Does B1 bind?
Answer: no binding

Molecular target: GST-DVL1 PDZ domain fusion protein (human dishevelled segment polarity protein homolog AA248-340); PDZ domain … (human, UniProt P08515 1-218 = GST)
Sequence (P08515 1-218, tags or fused parts left off): as above
Assay: A/G assays

Question: Does B2 bind?
Answer: no binding

Question: Does B1 bind?
Answer: no binding

Molecular target: GST-NOS1 PDZ domain fusion protein (human neuronal nitric oxide synthase; PDZ domain 1 of 1) (human, UniProt P08515 1-218 = GST)
Assay: A/G assays

Question: Does B2 bind?
Answer: no binding

Question: Does B1 bind?
Answer: no binding

Molecular target: T10, GST-TAX33 PDZ domain fusion protein (tax interaction protein 33 AA73-162; PDZ domain 1 of 1) (UniProt P08515 1-218 = GST)
T10 construct: also called TX33
T10 sequence (P08515 1-218, tags or fused parts left off): as above
Assay: A/G assays

Question: Does B2 bind?
Answer: no binding

Question: Does B1 bind?
Answer: no binding

Molecular target: T11, GST-CASK PDZ domain fusion protein (CASK AA495-584; PDZ domain 1 of 1) (mouse, UniProt P08515 1-218 = GST)
T11 construct: also called mCASK
T11 sequence (P08515 1-218, tags or fused parts left off): as above
Assay: A/G assays

Question: Does B2 bind?
Answer: no binding

Question: Does B1 bind?
Answer: no binding

Molecular target: T12, GST-SYN1a PDZ domain fusion protein (alpha1-syntrophin AA96-189; PDZ domain 1 of 1) (UniProt P08515 1-218 = GST)
T12 construct: also called SYN 1 alpha; SYNTR 1 alpha
T12 sequence (P08515 1-218, tags or fused parts left off): as above
Assay: A/G assays

Question: Does B2 bind?
Answer: no binding

Question: Does B1 bind?
Answer: no binding

Molecular target: T13, GST-KIAA0559 PDZ domain fusion protein (KIAA0559 AA766-870; PDZ1 of 1) (UniProt P08515 1-218 = GST)
T13 construct: also called K559
Assay: A/G assays

Question: Does B2 bind?
Answer: no binding

Question: Does B1 bind?
Answer: no binding

Molecular target: T1, GST-PSD95 PDZ domain fusion protein …
Assay: A/G assays

Question: Does B2 bind?
Answer: no binding

Molecular target: GST-PTN-4 PDZ domain fusion protein (protein-tyrosine phosphatase meg1 AA774-862; PDZ domain 1 of 1) (UniProt P08515 1-218 = GST)
Sequence (P08515 1-218, tags or fused parts left off): as above
Assay: A/G assays

Question: Does B2 bind?
Answer: no binding

Question: Does B1 bind?
Answer: no binding

Molecular target: T14, GST-RGS12 PDZ domain fusion protein (human regulator of G-protein signalling 12 AA35-103; PDZ domain 1 of 1) (human, UniProt P08515 1-218 = GST)
T14 construct: also called RSG12
T14 sequence (P08515 1-218, tags or fused parts left off): as above
Assay: A/G assays

Question: Does B2 bind?
Answer: no binding

Question: Does B1 bind?
Answer: no binding

Molecular target: GST-TIAM1 PDZ domain fusion protein (T-lymphoma invasion and metastasis inducing protein 1 AA1001-1088); PDZ 1 … (UniProt P08515 1-218 = GST)
Sequence (P08515 1-218, tags or fused parts left off): as above
Assay: A/G assays

Question: Does B2 bind?
Answer: no binding

Question: Does B1 bind?
Answer: no binding

Molecular target: T15, GST-41.8 kD PDZ domain fusion protein (hypothetical 41.8 kD protein AA4-85; PDZ domain 1 of 1) (UniProt P08515 1-218 = GST)
T15 construct: also called hypoth
T15 sequence (P08515 1-218, tags or fused parts left off): as above
Assay: A and G assays

Question: Does B2 bind?
Answer: binds

Question: Does B1 bind?
Answer: binds
